{
  "source": "patent EP1053001B1",
  "about": "(AMYLIN PHARMACEUTICALS, INC., dated 2010)",
  "binders": {"B1": {"name": "Compound 6 (peptide)", "peptide": "XLSTAVLGRLSQELHRLQTYPRTNTGSNTY", "modifications": "acetylated with acetic anhydride (site not given)"}, "B2": {"name": "Compound 1 (peptide)", "peptide": "LSTCVLGRLSQELHRLQTYPRTNTGSNTY", "modifications": "not fully specified"}, "B3": {"name": "Compound 5 (peptide)", "peptide": "LSTSVLGRLSQELHRLQTYPRTNTGSNTY-NH2"}, "B4": {"name": "Compound 4 (peptide)", "peptide": "LSTAVLGRLSQELHRLQTYPRTNTGSNTY-NH2", "modifications": "not fully specified"}},
  "key": {"[1]": {"target": "T1, calcitonin receptors (human T47D / MCF7 breast carcinoma cells) (human, UniProt P30988 25-474)", "T1 sequence (looked up)": "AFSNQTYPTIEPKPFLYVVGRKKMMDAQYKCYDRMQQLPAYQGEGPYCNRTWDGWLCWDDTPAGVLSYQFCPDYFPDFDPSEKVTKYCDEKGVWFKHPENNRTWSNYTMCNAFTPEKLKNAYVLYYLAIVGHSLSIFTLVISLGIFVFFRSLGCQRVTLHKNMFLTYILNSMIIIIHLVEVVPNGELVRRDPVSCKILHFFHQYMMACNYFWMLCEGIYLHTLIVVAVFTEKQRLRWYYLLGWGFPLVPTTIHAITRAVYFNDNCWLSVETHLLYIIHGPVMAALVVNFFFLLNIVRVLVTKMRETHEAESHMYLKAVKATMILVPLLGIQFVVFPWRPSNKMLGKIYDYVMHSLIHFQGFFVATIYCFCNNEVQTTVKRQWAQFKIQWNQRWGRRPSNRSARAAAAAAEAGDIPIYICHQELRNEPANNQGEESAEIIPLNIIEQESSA", "test": "cell-based or functional assay"}, "[2]": {"target": "T2, rat calcitonin C1a receptor (rat, UniProt P32214 25-516)", "T2 sequence (looked up)": "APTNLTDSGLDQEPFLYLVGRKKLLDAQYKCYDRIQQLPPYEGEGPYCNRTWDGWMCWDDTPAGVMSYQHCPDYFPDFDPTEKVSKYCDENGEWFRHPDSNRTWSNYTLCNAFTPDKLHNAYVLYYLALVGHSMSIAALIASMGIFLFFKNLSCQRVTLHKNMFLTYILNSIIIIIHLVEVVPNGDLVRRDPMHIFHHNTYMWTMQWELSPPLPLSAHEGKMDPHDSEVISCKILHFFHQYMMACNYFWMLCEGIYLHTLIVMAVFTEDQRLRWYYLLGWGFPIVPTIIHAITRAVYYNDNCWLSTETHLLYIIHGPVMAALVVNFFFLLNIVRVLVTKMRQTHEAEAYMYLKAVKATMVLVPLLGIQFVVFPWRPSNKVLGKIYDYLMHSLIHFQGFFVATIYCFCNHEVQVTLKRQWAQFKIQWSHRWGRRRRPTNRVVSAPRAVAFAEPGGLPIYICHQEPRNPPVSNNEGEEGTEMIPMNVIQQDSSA", "test": "cell-based or functional assay"}, "[3]": {"target": "T3, amylin receptors (rat nucleus accumbens membranes) (rat)", "T3 construct": "Assayed as a tissue membrane preparation, not on intact cells; also called amylin (nucleus accumbens) receptors", "test": "radioligand competition vs 125I-BH-rat amylin, rat nucleus accumbens membranes"}},
  "note": "No end group written: not given here.",
  "data": [
    {"binder": "B1", "values": [
      {"measurement": "fold lower potency than human calcitonin, adenylyl cyclase, MCF7-7 cells", "setting": "[1]", "result": 80, "unit": "fold"}
    ]},
    {"binder": "B2", "values": [
      {"measurement": "EC50 of adenyl cyclase stimulation, HEK293 cells stably transfected with rat calcitonin C1a receptor", "setting": "[2]", "result": 970, "unit": "pM"}
    ]},
    {"binder": "B3", "values": [
      {"measurement": "IC50", "setting": "[3]", "result": 92, "unit": "pM"}
    ]},
    {"binder": "B4", "values": [
      {"measurement": "IC50", "setting": "[3]", "result": 66, "unit": "pM"}
    ]}
  ]
}
